{"source": "patent US9079867B2", "about": "“Polyazamacrocyclic compound, and a production method and a biomedical use therefor” (KYUNGPOOK NATIONAL UNIVERSITY INDUSTRY-ACADEMIC COOPERATION …, priority 2010, dated 2015)", "key": {"[1]": {"test": "Cyclic voltammetry (electrochemical experiment)", "type": "physicochemical", "conditions": "irreversible (irrev); 2 mM, 100 mV/s, 0.1 M sodium acetate pH 7.0, glassy carbon electrode", "method": "Cyclic voltammetry was carried out by using biological model SP-150 having a 3-electrode structure. The working electrode was made of glassy carbon (diameter=3 mm), the reference electrode Ag/AgCl (saturated KCl), and the counter electrode Pt wire. A sample (2 mM) of compound (30) was operated at a scanning speed of 100 mV/s in a 0.1 M aqueous sodium acetate solution adjusted to pH 7.0 with glacial acetic acid. From the solution, oxygen was removed by bubbling Ar for 30 minutes. During the measurement, the system was maintained under Ar atmosphere."}, "in vivo": {"test": "in vivo", "parameters": "species or system female nude mice", "conditions": "female, nude, mouse, iv, 10 uCi, total radioactivity", "method": "Compound ^64Cu-TE2A-c(RGDyK) (38) (10 μCi) in PBS (120 μl) was injected to the tails of female nude mice to which U87MG tumor had been transplanted. Two groups were examined at two time points [n=4 per group at 1 hr and 4 hr post injection (pi)]. The subject animals were sacrificed, and the relevant tissues and organs were removed and weighed. A dosimetric procedure was carried out by using a gamma-counter. The calculations were performed by comparing with a reference value of which the percentage of injected amount per gram was known."}}, "data": [{"smiles": "O=C([O-])CN1CCCNCCN(CC(=O)[O-])CCCNCC1.[Cu+2]", "note": "[Cu-TE2A]", "values": [{"measurement": "Ered (V) for Ag/AgCl", "setting": "[1]", "result": "−1.05 (irrev) V"}]}, {"smiles": "N=C(N)NCCC[C@@H]1NC(=O)[C@H](CCCCNC(=S)Nc2ccc(CCN3CCCN(CC(=O)O)CCNCCCN(CC(=O)O)CC3)cc2)NC(=O)[C@@H](Cc2ccc(O)cc2)NC(=O)[C@H](CC(=O)O)NC(=O)CNC1=O", "note": "[^64Cu-TE2A-c(RGDyK), metal not drawn]", "values": [{"measurement": "tissue uptake at 1 h", "setting": "in vivo; % ID/g Blood", "result": "0.55 ± 0.18", "unit": "%ID/g"}, {"measurement": "tissue uptake at 4 h", "setting": "in vivo; % ID/g Blood", "result": "0.43 ± 0.09", "unit": "%ID/g"}, {"measurement": "tissue uptake at 1 h", "setting": "in vivo; % ID/g Bone", "result": "0.66 ± 0.23", "unit": "%ID/g"}, {"measurement": "tissue uptake at 4 h", "setting": "in vivo; % ID/g Bone", "result": "0.41 ± 0.06", "unit": "%ID/g"}, {"measurement": "tissue uptake at 1 h", "setting": "in vivo; % ID/g Fat", "result": "1.28 ± 0.55", "unit": "%ID/g"}, {"measurement": "tissue uptake at 4 h", "setting": "in vivo; % ID/g Fat", "result": "1.15 ± 1.08", "unit": "%ID/g"}, {"measurement": "tissue uptake at 1 h", "setting": "in vivo; % ID/g Intestine", "result": "2.14 ± 0.53", "unit": "%ID/g"}, {"measurement": "tissue uptake at 4 h", "setting": "in vivo; % ID/g Intestine", "result": "2.17 ± 0.62", "unit": "%ID/g"}, {"measurement": "tissue uptake at 1 h", "setting": "in vivo; % ID/g Kidney", "result": "3.47 ± 0.61", "unit": "%ID/g"}, {"measurement": "tissue uptake at 4 h", "setting": "in vivo; % ID/g Kidney", "result": "2.71 ± 0.45", "unit": "%ID/g"}, {"measurement": "tissue uptake at 1 h", "setting": "in vivo; % ID/g Liver", "result": "5.45 ± 1.14", "unit": "%ID/g"}, {"measurement": "tissue uptake at 4 h", "setting": "in vivo; % ID/g Liver", "result": "4.45 ± 0.65", "unit": "%ID/g"}, {"measurement": "tissue uptake at 1 h", "setting": "in vivo; % ID/g Lung", "result": "1.46 ± 0.34", "unit": "%ID/g"}, {"measurement": "tissue uptake at 4 h", "setting": "in vivo; % ID/g Lung", "result": "1.14 ± 0.17", "unit": "%ID/g"}, {"measurement": "tissue uptake at 1 h", "setting": "in vivo; % ID/g Muscle", "result": "0.49 ± 0.3", "unit": "%ID/g"}, {"measurement": "tissue uptake at 4 h", "setting": "in vivo; % ID/g Muscle", "result": "0.24 ± 0.11", "unit": "%ID/g"}, {"measurement": "tissue uptake at 1 h", "setting": "in vivo; % ID/g Spleen", "result": "1.17 ± 0.46", "unit": "%ID/g"}, {"measurement": "tissue uptake at 4 h", "setting": "in vivo; % ID/g Spleen", "result": "1.04 ± 0.46", "unit": "%ID/g"}, {"measurement": "tissue uptake at 1 h", "setting": "in vivo; % ID/g Stomach", "result": "1.78 ± 0.55", "unit": "%ID/g"}, {"measurement": "tissue uptake at 4 h", "setting": "in vivo; % ID/g Stomach", "result": "1.03 ± 0.39", "unit": "%ID/g"}, {"measurement": "tissue uptake at 1 h", "setting": "in vivo; % ID/g Tumor 1", "result": "2.98 ± 0.39", "unit": "%ID/g"}, {"measurement": "tissue uptake at 4 h", "setting": "in vivo; % ID/g Tumor 1", "result": "3.01 ± 1", "unit": "%ID/g"}, {"measurement": "tissue uptake at 1 h", "setting": "in vivo; % ID/g Tumor 2", "result": "3.49 ± 1.67", "unit": "%ID/g"}, {"measurement": "tissue uptake at 4 h", "setting": "in vivo; % ID/g Tumor 2", "result": "3.32 ± 0.49", "unit": "%ID/g"}]}]}
